According to publication PMC3805332 (ACS Chemical Biology, 2013):
Several values for one entry are separate records, joined by “and”; a condition that tells them apart may be missing. Equal entries are not always repeated.

T1: M. smegmatis TreS (recombinant) (M. smegmatis, UniProt A0R6E0 1-593)
T1 sequence (looked up): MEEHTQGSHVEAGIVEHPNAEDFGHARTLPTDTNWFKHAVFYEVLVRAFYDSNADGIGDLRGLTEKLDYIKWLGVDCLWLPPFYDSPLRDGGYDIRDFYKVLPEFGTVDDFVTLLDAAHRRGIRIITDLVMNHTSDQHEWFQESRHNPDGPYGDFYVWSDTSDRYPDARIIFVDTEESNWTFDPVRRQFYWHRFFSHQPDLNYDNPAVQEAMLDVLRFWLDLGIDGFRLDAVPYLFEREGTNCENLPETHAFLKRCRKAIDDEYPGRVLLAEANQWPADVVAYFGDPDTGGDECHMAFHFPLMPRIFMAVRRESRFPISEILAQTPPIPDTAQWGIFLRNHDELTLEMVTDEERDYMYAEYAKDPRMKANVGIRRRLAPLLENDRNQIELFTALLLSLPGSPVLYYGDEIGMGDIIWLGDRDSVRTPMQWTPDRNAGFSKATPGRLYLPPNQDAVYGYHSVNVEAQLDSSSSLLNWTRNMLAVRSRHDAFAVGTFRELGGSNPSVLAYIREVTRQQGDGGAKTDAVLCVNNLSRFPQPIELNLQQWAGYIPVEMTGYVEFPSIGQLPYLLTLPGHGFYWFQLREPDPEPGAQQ

B1: M. tuberculosis trehalose synthase TreS (enzyme)
chain: MNEAEHSVEHPPVQGSHVEGGVVEHPDAKDFGSAAALPADPTWFKHAVFYEVLVRAFFDASADGSGDLRGLIDRLDYLQWLGIDCIWLPPFYDSPLRDGGYDIRDFYKVLPEFGTVDDFVALVDAAHRRGIRIITDLVMNHTSESHPWFQESRRDPDGPYGDYYVWSDTSERYTDARIIFVDTEESNWSFDPVRRQFYWHRFFSHQPDLNYDNPAVQEAMIDVIRFWLGLGIDGFRLDAVPYLFEREGTNCENLPETHAFLKRVRKVVDDEFPGRVLLAEANQWPGDVVEYFGDPNTGGDECHMAFHFPLMPRIFMAVRRESRFPISEIIAQTPPIPDMAQWGIFLRNHDELTLEMVTDEERDYMYAEYAKDPRMKANVGIRRRLAPLLDNDRNQIELFTALLLSLPGSPVLYYGDEIGMGDVIWLGDRDGVRIPMQWTPDRNAGFSTANPGRLYLPPSQDPVYGYQAVNVEAQRDTSTSLLNFTRTMLAVRRRHPAFAVGAFQELGGSNPSVLAYVRQVAGDDGDTVLCVNNLSRFPQPIELDLQQWTNYTPVELTGHVEFPRIGQVPYLLTLPGHGFYWFQLTTHEVGAPPTCGGERRL
B2: M. smegmatis Pep2-K145A (enzyme)
chain: not shown

Assays:
[1] = molecular target: M. tuberculosis maltokinase Pep2 (M. tuberculosis H37Rv, UniProt O07177 1-455); test: SEC; conditions: both partners purified
AUC = molecular target: the molecule itself; test: AUC
[2] = molecular target: T1, M. smegmatis TreS (recombinant); test: SEC; M. smegmatis Pep2-K145A with M. smegmatis TreS (Figure S6B); conditions not given; conditions: both partners purified

| Binder | binding result [1] | stoichiometry N (AUC) | binding result [2] |
| --- | --- | --- | --- |
| B1 | binds | 4 and 8 |  |
| B2 |  |  | binds |
